This note sets out measurements from FireProtDB (doi:10.1110/ps.8.4.832).

The conditions of this data set: Aspergillus oryzae (strain ATCC 42149 / RIB 40), Thermal, whole UniProt chain shown.
Where [1] appears, read: pH 1.1, DSC, glycine-HCl 0.1 M/0.1 M, NaCl 0.1 M, reversible: yes(77%).
Setting [2] is: pH 1.5, DSC, glycine-HCl 0.1 M/0.1 M, NaCl 0.1 M, reversible: yes(99%).
The mark [3] stands for this setting: pH 2, DSC, glycine-HCl 0.1 M/0.1 M, NaCl 0.1 M, reversible: yes(80%).
[4] abbreviates: pH 3, DSC, glycine-HCl 0.1 M/0.1 M, NaCl 0.1 M, reversible: yes(80%).
Where [5] appears, read: pH 7, DSC, None, reversible: yes(26%).

B1: Guanyl-specific ribonuclease T1 wild type, P00651 (protein)
chain: MMYSKLLTLTTLLLPTALALPSLVERACDYTCGSNCYSSSDVSTAQAAGYQLHEDGETVGSNSYPHKYNNYEGFDFSVSSPYYEWPILSSGDVYSGGSPGADRVVFNENNQLAGVITHTGASGNNFVECT
One may read the Tm as the temperature at the midpoint of the melting transition. Consider B1, for which the Tm runs as follows: (pH 1.1, Absorbance, glycine-HCl 0.1 M/0.1 M, NaCl 0.1 M, reversible: yes(77%)) 25.9 °C; under setting [1], 28.2 °C; under setting [2], 32.3 °C; (pH 2, Absorbance, glycine-HCl 0.1 M/0.1 M, NaCl 0.1 M, reversible: yes(80%)) 33 °C; under setting [3], 37 °C; (pH 3, Absorbance, glycine-HCl 0.1 M/0.1 M, NaCl 0.1 M, reversible: yes(80%)) 46.1 °C. Besides, the Tm is, setting by setting: under setting [4], 50.2 °C; (pH 3.5, Absorbance, glycine-HCl 0.1 M/0.1 M, NaCl 0.1 M, reversible: yes(73%)) 52.7 °C; (pH 7, Absorbance, None, reversible: yes(26%)) 62.8 °C; under setting [5], 64.4 °C. The “unfolding enthalpy (calorimetric)” value is, setting by setting: under setting [1], 43.3 kcal/mol; under setting [2], 47.6 kcal/mol; under setting [3], 68.9 kcal/mol; under setting [4], 95.7 kcal/mol; under setting [5], 123 kcal/mol. The “unfolding enthalpy (van 't Hoff)” value under setting [1] was determined as 55.7 kcal/mol; the “unfolding enthalpy (van 't Hoff)” value under setting [2] worked out at 60.5 kcal/mol; the “unfolding enthalpy (van 't Hoff)” value under setting [3] came to 66.3 kcal/mol; the “unfolding enthalpy (van 't Hoff)” value under setting [4] was determined as 93.1 kcal/mol; the “unfolding enthalpy (van 't Hoff)” value under setting [5] was 116 kcal/mol.
